Data taken from US20100203044A1, “DR6 ANTAGONISTS AND USES THEREOF IN TREATING NEUROLOGICAL DISORDERS” (priority 2006, published 2010).
“Also recorded” adds a separate entry of the source.

How the values were obtained:
APP = molecular target: T1, APP (Homo sapiens, UniProt P05067); assay: cell-based AP binding assay, APP expressing COS-1 cells; details: DR6-AP conditioned medium 1:1 with binding buffer, 90 minutes
T1 construct: expressed in transfected cells; host or cells: COS-1
Experimental: The materials and methods used to generate the data shown in this figure are as follows. To test whether APP directly interacts with DR6 extracellular domain, a cell-based AP binding assay was carried out (FIG. 14B). To generate DR6 ectodomain-AP fusion protein (DR6-AP), COS-1 cells cultured in DMEM/10% FBS (Gibco) medium were transfected with 15 microgram of DR6-AP fusion expression construct using FuGene transfection reagent (Roche) according to the manufacturer protocol. Twelve hours post-transfection, COS-1 cell medium was changed to OPTI-MEM (Invitrogen). Forty-eight hours post-transfection, COS-1 cell conditioned medium containing DR6-AP proteins was collected and filtered.
The amount of DR6-AP proteins in the medium was quantified according to the following procedure. 100 microliters of 2×AP buffer (prepared by adding 100 mg Para-nitrophenyl phosphate (Sigma) and 15 microliter of 1M MgCl2 to 15 ml 2M diethanolamine pH 9.8) was mixed with equal volume of transfected COS cell conditioned medium or control conditioned medium from untransfected COS-1 cells. […] The volume of reaction was then adjusted by adding 800 microliters of distilled water and the O.D. was measured at 405 nm absorbance wavelength. The concentration in nM was calculated according to the formula (for 100 microliter): C (nM)=O.D.×100×(60/developing time)/30. […]

p75NTR = molecular target: T2, p75NTR (Homo sapiens, UniProt P08138); assay: cell-based AP binding assay, p75NTR expressing COS-1 cells; details: same conditions as APP binding
T2 construct: expressed in transfected cells; host or cells: COS-1
T2 sequence (P08138 29-427): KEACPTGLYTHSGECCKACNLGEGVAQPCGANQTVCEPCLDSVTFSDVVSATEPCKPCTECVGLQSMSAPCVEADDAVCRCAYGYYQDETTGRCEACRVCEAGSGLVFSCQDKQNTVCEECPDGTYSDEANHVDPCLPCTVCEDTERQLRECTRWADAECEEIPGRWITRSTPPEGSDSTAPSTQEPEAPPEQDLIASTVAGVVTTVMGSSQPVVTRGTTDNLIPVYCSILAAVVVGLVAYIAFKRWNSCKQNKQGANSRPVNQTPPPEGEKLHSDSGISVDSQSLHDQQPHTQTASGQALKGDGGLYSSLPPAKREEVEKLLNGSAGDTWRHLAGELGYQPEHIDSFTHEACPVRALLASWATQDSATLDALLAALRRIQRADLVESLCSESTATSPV
Experimental: (§1) For the APP AP binding assay, COS-1 cells cultured in DMEM/10% FBS (Gibco) medium in 6-well culture dishes were transfected with 2 microgram of APP expressing vector per well using FuGene transfection reagent (Roche) according to the manufacturer protocol. Two days post-transfection, cells were washed twice with the binding buffer (HBSS, Gibco Cat. No. 14175-095, with 0.2% BSA, 0.1% NaN3, 5 mM CaCl2, 1 mM MgCl2, 20 mM HEPES, pH=7.0). An AP binding assay was then carried out by making a 1:1 mixture of DR6-AP conditioned medium and the binding buffer, which was applied directly to APP over-expressing COS-1 cells and incubated for 90 minutes at room temperature. Following the incubation, the unbound DR6-AP proteins were washed away by rinsing COS-1 cells five times with the binding buffer. Cells were then fixed with 3.7% formaldehyde diluted in PBS, for 12 minutes at room temperature. The remaining formaldehyde was removed by rinsing cells 3 times with HBS buffer (20 mM HEPES pH=7.0, 150 mM NaCl). Endogenous AP activity was blocked by heat inactivation at 65° C. in HBS buffer for 30 minutes. COS-1 cells were then rinsed three times in the AP reaction buffer (100 mM TRIS pH=9.5, 100 mM NaCl, 50 mM MgCl2). […]

DR6 receptor = molecular target: T3, DR6 receptor (Homo sapiens, UniProt O75509); assay: cell-based AP binding assay, DR6 receptor expressing COS-1 cells; details: same conditions as APP binding
T3 construct: expressed in transfected cells; host or cells: COS-1
T3 sequence (O75509 42-655): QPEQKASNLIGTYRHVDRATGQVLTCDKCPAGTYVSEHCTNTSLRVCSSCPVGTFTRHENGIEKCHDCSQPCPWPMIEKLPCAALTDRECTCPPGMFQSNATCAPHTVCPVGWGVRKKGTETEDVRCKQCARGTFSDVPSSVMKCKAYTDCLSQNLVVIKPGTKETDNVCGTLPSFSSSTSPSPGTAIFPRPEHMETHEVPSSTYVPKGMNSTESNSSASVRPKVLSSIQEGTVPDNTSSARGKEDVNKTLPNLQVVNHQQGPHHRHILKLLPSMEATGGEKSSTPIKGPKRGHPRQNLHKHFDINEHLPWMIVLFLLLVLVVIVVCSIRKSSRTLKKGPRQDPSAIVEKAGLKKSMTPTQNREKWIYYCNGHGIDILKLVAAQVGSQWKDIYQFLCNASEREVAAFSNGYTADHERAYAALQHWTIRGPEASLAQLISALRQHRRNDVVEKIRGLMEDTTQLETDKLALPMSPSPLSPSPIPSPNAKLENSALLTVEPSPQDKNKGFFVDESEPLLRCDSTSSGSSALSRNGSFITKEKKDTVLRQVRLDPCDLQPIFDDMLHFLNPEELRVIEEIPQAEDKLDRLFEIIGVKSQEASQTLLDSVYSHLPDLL
Experimental: as §1

T1 sequence (P05067 18-770): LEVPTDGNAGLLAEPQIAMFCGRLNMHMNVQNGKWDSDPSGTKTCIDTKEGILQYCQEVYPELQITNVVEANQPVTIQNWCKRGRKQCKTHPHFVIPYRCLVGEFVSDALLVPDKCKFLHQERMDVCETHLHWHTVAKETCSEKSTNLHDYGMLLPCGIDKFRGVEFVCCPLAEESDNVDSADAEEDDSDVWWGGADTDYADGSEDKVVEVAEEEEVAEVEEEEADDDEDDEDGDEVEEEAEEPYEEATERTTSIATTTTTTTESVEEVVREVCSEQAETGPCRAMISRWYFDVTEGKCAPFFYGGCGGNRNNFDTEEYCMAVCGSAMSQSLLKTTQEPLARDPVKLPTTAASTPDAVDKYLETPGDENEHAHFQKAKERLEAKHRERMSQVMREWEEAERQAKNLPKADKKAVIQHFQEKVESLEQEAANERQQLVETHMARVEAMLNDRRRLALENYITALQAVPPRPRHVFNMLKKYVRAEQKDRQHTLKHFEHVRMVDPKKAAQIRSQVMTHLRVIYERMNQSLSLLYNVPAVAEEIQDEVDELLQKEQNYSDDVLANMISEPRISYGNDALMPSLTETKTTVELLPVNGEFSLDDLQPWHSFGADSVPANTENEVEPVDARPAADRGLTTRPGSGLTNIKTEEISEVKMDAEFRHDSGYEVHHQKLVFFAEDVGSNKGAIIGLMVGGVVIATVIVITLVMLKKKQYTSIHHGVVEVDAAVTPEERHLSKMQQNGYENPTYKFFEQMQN

B1: DR6-AP: mouse DR6 ectodomain fused to human placental alkaline phosphatase (protein)
chain: QPEQKTLSLPGTYRHVDRTTGQVLTCDKCPAGTYVSEHCTNMSLRVCSSCPAGTFTRHENGIERCHDCSQPCPWPMIERLPCAALTDRECICPPGMYQSNGTCAPHTVCPVGWGVRKKGTENEDVRCKQCARGTFSDVPSSVMKCKAHTDCLGQNLEVVKPGTKETDNVCGMRLFFSSTNPPSSGTVTFSHPEHMESHDVPSSTYEPQGMNSTDSNSTASVRTKVPSGIEEGTVPDNTSSTSGKEGTNRTLPNPPQVTHQQAPHHRHILKLLPSSMEATGEKSSTAIKAPKRGHPRQNAHKHFDINEHIIPVEEENPDFWNREAAEALGAAKKLQPAQTAAKNLIIFLGDGMGVSTVTAARILKGQKKDKLGPEIPLAMDRFPYVALSKTYNVDKHVPDSGATATAYLCGVKGNFQTIGLSAAARFNQCNTTRGNEVISVMNRAKKAGKSVGVVTTTRVQHASPAGTYAHTVNRNWYSDADVPASARQEGCQDIATQLISNMDIDVILGGGRKYMFRMGTPDPEYPDDYSQGGTRLDGKNLVQEWLAKRQGARYVWNRTELMQASLDPSVTHLMGLFEPGDMKYEIHRDSTLDPSLMEMTEAALRLLSRNPRGFFLFVEGGRIDHGHHESRAYRALTETIMFDDAIERAGQLTSEEDTLSLVTADHSHVFSFGGYPLRGSSIFGLAPGKARDRKAYTVLLYGNGPGYVLKDGARPDVTESESGSPEYRQQSAVPLDEETHAGEDVAVFARGPQAHLVHGVQEQTFIAHVMAFAACLEPYTACDLAPPAGTTDAAHPG
- binding of DR6 ectodomain to APP expressing cells (APP): binds APP expressed by cultured cells
- binding of DR6 ectodomain to p75NTR expressing cells (p75NTR): does NOT bind; also recorded: no specific binding
- binding of DR6 ectodomain to DR6 receptor expressing cells (DR6 receptor): does NOT bind; also recorded: no specific binding
